Experiment [1] addresses T1, human wild-type TREM2 (membrane bound, isoform 1) stably overexpressed on HEK293 Flp-In cells (human).
T1 construct: also called wt TREM2; human full-length TREM2
T1 chain: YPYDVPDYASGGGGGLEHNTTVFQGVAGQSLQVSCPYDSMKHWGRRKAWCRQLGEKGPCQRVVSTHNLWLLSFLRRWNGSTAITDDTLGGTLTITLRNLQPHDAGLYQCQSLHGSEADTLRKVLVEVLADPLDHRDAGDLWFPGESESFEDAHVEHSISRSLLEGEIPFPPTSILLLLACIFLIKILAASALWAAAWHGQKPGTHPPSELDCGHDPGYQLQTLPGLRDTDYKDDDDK
The experiment can be described thus: immunofluorescence on live HEK293 Flp-In cells expressing human full-length TREM2 against empty-vector cells; hybridoma supernatant diluted 1:2. As for the experimental part: TREM2-reactive supernatants were subsequently screened for their ability to detect TREM2 on the cell surface of HEK293 Flp-In cells stably overexpressing human wild-type TREM2 (Kleinberger et al. 2014). HEK293 Flp-In cells either expressing human full-length TREM2 or empty vector (=control) were cultured in 96-well tissue culture plates, washed twice with PBS, blocked with 2% bovine serum albumin (BSA) in PBS and incubated with the respective TREM2-reactive supernatants (diluted 1:2 in blocking buffer) for 60 minutes on ice. Cells were subsequently washed three times with PBS, fixed with 4% paraformaldehyde for 20 min on room temperature and washed three times with PBS. Binding of TREM2-reactive supernatants was visualized using isotype-specific mouse-anti rat secondary antibodies followed by incubation with a goat anti-mouse tertiary antibody coupled to Alexa-488 (Life Technologies). 4′, 6-diamidino-2-phenylindol (Dapi, Life Technologies) was used as a nuclear counterstain. Images were acquired automatically using a Cytation multi-detection reader (Biotek).

In experiment [2] the target is T1, human wild-type TREM2 (membrane bound, …). Kind of experiment: cell-based or functional assay.

B1: antibody clone 8A11 (antibody, V domains shown)
VH: EVKLLESGGGLVQPGGSMRLSCAASGFTFTDFYMNWIRQPAGKAPEWLGLIRNKTKGYTTEYNTSVKGRFTISRDNTQNMLYLQMNSLRPEDTATYYCARIGVNNGGSLDYWGQGVMVTVSS
VL: DILIIQSPASLTVSAGARVTMSCKSSQSLLYSENNQDYLAWYQQKPGQFPKLLIYGASNRHTGVPDRFTGSGSGTDFTLTISSVQAEDLADYYCEQTYSYPYTFGAGTKLELK
notes: Rat monoclonal IgG from a hybridoma
On to B1, for which the binding result in experiment [1] is “binds”.

B2: antibody clone 1G6 (antibody, V domains shown)
VH: EVKLLESGGGLVQPGGSLRLSCVASGFTFTDFYMNWIRQPAGKAPEWLGLIRNKANGFTTEYNPSVKGRFTISRDNTQHMLYLQMNTLRAEDTATYYCARIGINNGGSLDYWGQGVMVTVSS
VL: DILINQSPASLTVSTGEKVTMSCKSSQSLLYSENKQDYLAWYQQKPGQFPKLLIYGASNRHTGVPDRFTGSGSGTDFTLTINIVQAEDLADYYCEQTYSYPYTFGAGTKLELK
notes: as for B1
In the case of B2, the binding result in experiment [1] is “binds”.

B3: antibody clone 21A3 (antibody, V domains shown)
VH: EVKLLESGGGLVQPGGSMRLSCAASGFTFTDFYMNWIRQPAGKAPEWLGLIRNKANGYTTQYNPSVKGRFTISRDNTQNMLYLQMNTLRGEDTATYYCARIGINNGGSLDYWGQGVMVTVSS
VL: DILINQSPASLTVSAGEKVTMSCKSSQSLLYSEKNQDYLAWYQQKPGQSPKLLMYGASYRHTGVPDRFTGSGSGTDFTLTISSVQAEDLADYYCEQTYSYPYTFGAGTKLELK
notes: as for B1
Regarding B3, the binding result in experiment [1] is “binds”.

B4: antibody clone 7A12 (antibody, V domains shown)
VH: EVKLLESGGGLVQPGGSMRLSCAASGFTFTDFYMNWIRQPAGKAPEWLGLIRNKANGYTTQYNPSVKGRFTISRDNTQNMLYLQMNTLRGEDTATYYCARIGINNGGSLDYWGQGVMVTVSS
VL: DILINQSPASLTVSAGEKVTMSCKSSQSLLYSEKNQDYLAWYQQKPGQSPKLLMYGASYRHTGVPDRFTGSGSGTDFTLTISSVQAEDLADYYCEQTYSYPYTFGAGTKLELK
notes: as for B1
Take B4: the binding result in experiment [1] is recorded as “binds”.

B5: antibody clone 15C5 (antibody, V domains shown)
VH: EVKLLESGGGLVQPGGSMRLSCAASGFTFTDFYMNWIRQPAGKAPEWLGLIRNKAYGYTTEYNPSVKGRFTISRDNTQDMLYLQMNTLRAEDTATYYCARIGINYGGSLDYWGQGVMVTVSS
VL: DILINQSPASLTVSAGEKVTVSCKSSQSLLYSESNQDYLAWYQQKPGQFPKLLIYGASYRHTGVPDRFTGSGSGTDFTLTISSVQAEDLAHYYCEQTYSYPYTFGAGTKLELK
notes: as for B1
Regarding B5, the binding result in experiment [1] was “binds”.

B6: antibody clone 10C3 (antibody, V domains shown)
VH: EVKLLESGGGLVQPGGSMRLSCAASGFTFTDFYMNWIRQPAGETPEWLGLIRNKTKGYTTEYNPSVKGRFTISRDNTQNMLYLQMNSLRPEDTATYYCARIGTNNGGSLDYWGQGVMVTVSS
VL: DILIIQSPASLTVSAGARVTMSCKSSQSLLYSENNQDYLAWYQQKPGQFPKLLIYGASNRHTGVPDRFTGSGSGTDFTLTISSVQAEDLADYYCEQTYSYPYTFGAGTKLELK
notes: as for B1
For the molecule B6, the binding result in experiment [1] is listed as “binds”.

B7: antibody clone 14D8 (antibody, V domains shown)
VH: EVKLLESGGGLVQPGGSMRLSCAASGFTFTDFYMNWIRQPAGKAPEWLGLIRNKANGYTTVYNPSVKGRFTISRDNTQNMLYLQMNTLRGEDTATYYCARIGINNGGSLDYWGQGVMVTVSS
VL: DILINQSPASLTVSTGEKVTMSCRSSQSLLYSEKNQDYLAWYQQKPGQFPKLLIYGASYRHTGVPDRFTGSGSGTDFTLTISSVQAEDLADYYCEQTYSYPYTFGAGTKLELK
notes: as for B1
On to B7, for which the binding result in experiment [1] is listed as “binds”.

B8: antibody clone 14D3 (antibody, V domains shown)
VH: EVKLLEFGGGLVQPGGSMRLSCAASGFTFTDFYMNWIRQPAGRAPEWLGLIRNKTKGYTTEYNRSVKGRFTISRDNTQNMLYLQMNSLRPEDTATYYCARIGVNNGGSLDYWGQGVMVTVSS
VL: DILIIQSPASLTVSAGARVTMSCKSSQSLLYSENNQDYLAWYQQKPGQFPKLLIYGASNRHTGVPDRFTGSGSGTDFTLTISSVQAEDLADYYCEQTYSYPYTFGAGTKLELK
With B8, the “increase of mature TREM2 in the membrane fraction (quantified immunoblot, normalized to immature TREM2)” value in experiment [2] is not above 5 fold.

B9: antibody clone 18F9 (antibody, V domains shown)
VH: EVKLLESGGGLVQPGGSMRLSCVVSGFTFTDFYMNWIRQAAGKAPEWLGLIRNKVNGYRTEYNPSVKGRFTISRDNIQNMLYLQMNTLRAEDTATYYCARIGINNGGSLDYWGQGVMVTVSS
VL: DILINQSPASLTVSAGEKVTMSCKSSQSLLYSENNQDYLAWYQQKPGQFPKLLIYGASNRHTGVPDRFTGSGSGTDFTLTISSVQAEDLADYYCEQTYSYPYTFGAGTKLELK
notes: as for B1
For B9, the binding result in experiment [1] is given as “binds”.

(Values after patent US20190185565A1 (DEUTSCHES ZENTRUM FUR NEURODEGENERATIVE ERKRANKUNG EV, published 2019).)
